The conditions of this data set: pH 6, cacodylate 0.03 M, reversible: yes; for denaturant m value / denaturant midpoint (higher = more stable) / unfolding free energy: 25 °C, GdnHCl, KCl 0.1 M.
[1] abbreviates: Equus caballus, Thermal, CD, KCl.

Values joined by “and” are separate entries in the source; they are usually repeats but may differ in a detail not shown here. Equal values may be shown once.

As a reminder, the Tm is the temperature at the midpoint of the melting transition.

Chain of Cytochrome c wild type, P62894 (P62894 whole entry): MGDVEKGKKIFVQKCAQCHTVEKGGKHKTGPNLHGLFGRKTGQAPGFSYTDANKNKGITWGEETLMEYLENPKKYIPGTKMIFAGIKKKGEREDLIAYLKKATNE
Chain of Cytochrome c wild type, P00004 (P00004 whole entry): as the sequence (P62894 whole entry) above, with S48T, G61K, G90T counted along it

Consider Cytochrome c wild type, P62894, for which, under “Bos taurus, Absorbance”, the denaturant m value was determined as 3.95 kcal/mol/M, the “denaturant midpoint (higher = more stable)” value (shortened to “denaturant midpoint”) was 2.65 M and the unfolding free energy worked out at 43.9 kJ/mol. Besides, for the setting “Bos taurus, CD”, the denaturant m value is 4.02 kcal/mol/M and 4.03 kcal/mol/M and 3.91 kcal/mol/M; the “denaturant midpoint” value is 2.63 M and 2.61 M; the unfolding free energy was 44.5 kJ/mol and 44.1 kJ/mol and 42.7 kJ/mol.

Regarding Cytochrome c wild type, P00004, where the note is “Equus caballus, Absorbance”, the denaturant m value was 3.53 kcal/mol/M and 2.49 kcal/mol/M and 2.87 kcal/mol/M; the “denaturant midpoint” value was 2.49 M and 2.35 M and 2.37 M; the unfolding free energy was 36.9 kJ/mol and 25.1 kJ/mol and 28.5 kJ/mol. Moreover, for the setting “Equus caballus, CD”, the denaturant m value is 2.69 kcal/mol/M and 3.48 kcal/mol/M and 3.39 kcal/mol/M; the “denaturant midpoint” value is 2.5 M and 2.4 M and 2.45 M; the unfolding free energy was 28.1 kJ/mol and 35 kJ/mol and 34.8 kJ/mol. Moreover, under setting [1], the Tm was 26.8 °C and the “unfolding enthalpy (van 't Hoff)” value was 80 kJ/mol.
